In data set [1] the test system is biotinyl-Phe-oxazolone. The data set can be described thus: self-aminoacylation, catalytic enhancement (BFO) (fold over background); higher = more active; k-Seq, kA / k0A0; sequences stand for … in GGGAAUGGAUCCACAUCUACGAAUUC…UUCACUGCAGACUUGACGAAGCUG
In short, it runs like this: (§1)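 Each biotinyl-aminoacyl-oxazolone, at 2–1250 μM, was incubated with mutagenized RNA pools (0.43 μM) carrying a 21-nt variable region. The 50 μL reactions contained HEPES/NaCl/KCl/MgCl2/CaCl2 buffer with 5% acetonitrile at pH 6.9–7.0 and ran for 90 minutes at room temperature. After streptavidin capture, RNA was measured by qPCR in triplicate and by Illumina sequencing, and catalytic enhancement was calculated as median kA over the uncatalyzed rate from a pseudo-first-order fit of per-sequence fraction reacted.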

Data set [2] deals with biotinyl-Ile-oxazolone. The data set can be described thus: self-aminoacylation, catalytic enhancement (BIO) (fold over background); higher = more active; k-Seq, kA / k0A0; sequences stand for … in GGGAAUGGAUCCACAUCUACGAAUUC…UUCACUGCAGACUUGACGAAGCUG
The method, boiled down: as §1

In data set [3] the test system is biotinyl-Met-oxazolone. The data set can be described thus: self-aminoacylation, catalytic enhancement (BMO) (fold over background); higher = more active; k-Seq, kA / k0A0; sequences stand for … in GGGAAUGGAUCCACAUCUACGAAUUC…UUCACUGCAGACUUGACGAAGCUG
The method, boiled down: as §1

In data set [4] the test system is biotinyl-Val-oxazolone. Put plainly: self-aminoacylation, catalytic enhancement (BVO) (fold over background); higher = more active; k-Seq, kA / k0A0; sequences stand for … in GGGAAUGGAUCCACAUCUACGAAUUC…UUCACUGCAGACUUGACGAAGCUG
In short, it runs like this:
as §1

For data set [5], the system named is biotinyl-Leu-oxazolone. Put plainly: self-aminoacylation, catalytic enhancement (BLO) (fold over background); higher = more active; k-Seq, kA / k0A0; sequences stand for … in GGGAAUGGAUCCACAUCUACGAAUUC…UUCACUGCAGACUUGACGAAGCUG
The method, boiled down:
as §1

Data set [6] relates to biotinyl-Trp-oxazolone. The data set can be described thus: self-aminoacylation, catalytic enhancement (BWO) (fold over background); higher = more active; k-Seq, kA / k0A0; sequences stand for … in GGGAAUGGAUCCACAUCUACGAAUUC…UUCACUGCAGACUUGACGAAGCUG
The method, boiled down: as §1

This sample holds only a part of the variants without activity.

In the case of “AUUGACUUAGGUCAUCGGGUG [Fam2.2 aminoacylation ribozyme variant]”, the self-aminoacylation amounted to 39.1 in data set [1]; 3.47 in data set [2]; 5.25 in data set [3]; 3.95 in data set [4]; 6.27 in data set [5]; 5.77 in data set [6].
As to “AUUGAGCUAGGUCAUCGGGUG [Fam2.2 aminoacylation ribozyme variant]”, the self-aminoacylation came out at 26.6 in data set [1]; 3.41 in data set [2]; 3.78 in data set [3]; 3.55 in data set [4]; 5.61 in data set [5]; 5.57 in data set [6].
On to “AUUGCCCAGGUCAUCGAGUGA [Fam2.1 aminoacylation ribozyme variant]”, for which the self-aminoacylation is 18.4 in data set [1]; 2.66 in data set [2]; 5.51 in data set [3]; 3.16 in data set [4]; 4.81 in data set [5]; 5.7 in data set [6].
“AUUGCCCUGAUCAUCGAGUGA [Fam2.1 aminoacylation ribozyme variant]”: the self-aminoacylation was 26.6 in data set [1]; 3.73 in data set [2]; 7.51 in data set [3]; 4.01 in data set [4]; 7.17 in data set [5]; 8.98 in data set [6].
Take “AUUGCCCUGCUCAUCGAGUGA [Fam2.1 aminoacylation ribozyme variant]”: the self-aminoacylation in data set [1] was 5.55; in data set [2], 1.22; in data set [3] it was 1.86; in data set [4] it was 1.61; in data set [5], 1.91; in data set [6] it was 1.04.
As for “AUUGCCCUGGUCAUCAAGUGA [Fam2.1 aminoacylation ribozyme variant]”, the self-aminoacylation in data set [1] is 5.6; in data set [2] it was 1.39; in data set [3], 2.36; in data set [4] it was 1.65; in data set [5], 2.05; in data set [6], 2.85.
Regarding “AUUGCCCUGGUCAUCGAAUGA [Fam2.1 aminoacylation ribozyme variant]”, the self-aminoacylation in data set [1] was found to be 0.641; in data set [2], 1.05; in data set [3], 1.29; in data set [4] it was 1.29; in data set [5], 1.34; in data set [6], 0.773.
On to “AUUGCCCUGGUCAUCGAGUCA [Fam2.1 aminoacylation ribozyme variant]”, for which the self-aminoacylation in data set [1] was found to be 0.963; in data set [2] it was 0.957; in data set [3] it was 0.817; in data set [4] it was 0.894; in data set [5] it was 0.777; in data set [6], 0.652.
Take “AUUGCCCUGGUCAUCGCGUGA [Fam2.1 aminoacylation ribozyme variant]”: the self-aminoacylation stood at 157 in data set [1]; 9.62 in data set [2]; 23.1 in data set [3]; 12 in data set [4]; 26.3 in data set [5]; 23.6 in data set [6].
On to “AUUGCCCUGGUCAUCGGGUGA [Fam2.1 aminoacylation ribozyme variant]”, for which the self-aminoacylation in data set [1] turned out to be 317; in data set [2], 23.1; in data set [3], 58.1; in data set [4] it was 30; in data set [5], 67.3; in data set [6] it was 73.4.
In the case of “AUUGCCCUGGUCAUGGAGUGA [Fam2.1 aminoacylation ribozyme variant]”, the self-aminoacylation in data set [1] worked out at 23.7; in data set [2] it was 2.9; in data set [3], 3.81; in data set [4] it was 2.58; in data set [5], 4.11; in data set [6], 4.3.
Consider “AUUGCCCUGGUCUUCGAGUGA [Fam2.1 aminoacylation ribozyme variant]”, for which the self-aminoacylation in data set [1] is 47.1; in data set [2], 3.44; in data set [3], 6.57; in data set [4] it was 3.96; in data set [5] it was 6.8; in data set [6], 8.03.
As to “AUUGCCCUGGUGAUCGAGUGA [Fam2.1 aminoacylation ribozyme variant]”, the self-aminoacylation in data set [1] amounted to 36.1; in data set [2], 2.77; in data set [3], 5.63; in data set [4] it was 2.82; in data set [5] it was 5.06; in data set [6], 6.
As to “AUUGCGCUGGUCAUCGAGUGA [Fam2.1 aminoacylation ribozyme variant]”, the self-aminoacylation worked out at 25.1 in data set [1]; 2.47 in data set [2]; 4.28 in data set [3]; 2.62 in data set [4]; 4.57 in data set [5]; 5.11 in data set [6].
In the case of “AUUGGCCUGGUCAUCGAGUGA [Fam2.1 aminoacylation ribozyme variant]”, the self-aminoacylation in data set [1] is 30.7; in data set [2] it was 4.1; in data set [3], 6.17; in data set [4] it was 4.31; in data set [5] it was 7.35; in data set [6], 9.15.
Regarding “AUUUACAUAGGUCAUCGGGUG [Fam2.2 aminoacylation ribozyme variant]”, the self-aminoacylation in data set [1] was found to be 39; in data set [2], 3.38; in data set [3], 5.69; in data set [4], 3.38; in data set [5] it was 6.44; in data set [6], 5.5.
For the sequence “AUUUACCUAGGUCAUCGGGCG [Fam2.2 aminoacylation ribozyme variant]”, the self-aminoacylation in data set [1] came to 3.65; in data set [2] it was 2.57; in data set [3] it was 3.93; in data set [4] it was 3; in data set [5] it was 4.32; in data set [6] it was 3.25.
Turning to “AUUUACCUAGGUCAUCGGGGG [Fam2.2 aminoacylation ribozyme variant]”, the self-aminoacylation is 3.14 in data set [1]; 2.81 in data set [2]; 3.84 in data set [3]; 2.46 in data set [4]; 4.77 in data set [5]; 2.43 in data set [6].
Consider “AUUUACCUAGGUCAUCGGGUC [Fam2.2 aminoacylation ribozyme variant]”, for which the self-aminoacylation was 0.638 in data set [1]; 1.12 in data set [2]; 1.26 in data set [3]; 1.27 in data set [4]; 1.33 in data set [5]; 1.02 in data set [6].
Consider “AUUUACCUAGGUCAUCGGGUU [Fam2.2 aminoacylation ribozyme variant]”, for which the self-aminoacylation in data set [1] worked out at 36.2; in data set [2], 5.12; in data set [3] it was 8.02; in data set [4], 4.59; in data set [5], 11.7; in data set [6] it was 6.98.
For “AUUUACCUAGGUCAUGGGGUG [Fam2.2 aminoacylation ribozyme variant]”, the self-aminoacylation was found to be 25.7 in data set [1]; 3.3 in data set [2]; 4.54 in data set [3]; 2.85 in data set [4]; 6.06 in data set [5]; 4.29 in data set [6].
Regarding “AUUUACCUAGGUCGUCGGGUG [Fam2.2 aminoacylation ribozyme variant]”, the self-aminoacylation came to 9.82 in data set [1]; 1.46 in data set [2]; 1.61 in data set [3]; 1.82 in data set [4]; 1.88 in data set [5]; 0.963 in data set [6].
For the sequence “AUUUACCUAGGUCUUCGGGUG [Fam2.2 aminoacylation ribozyme variant]”, the self-aminoacylation in data set [1] was found to be 24.9; in data set [2], 2.84; in data set [3] it was 4.28; in data set [4], 3.38; in data set [5], 4.16; in data set [6], 3.92.
Regarding “AUUUCCCUGGGCAUCGAGUGA [Fam2.1 aminoacylation ribozyme variant]”, the self-aminoacylation in data set [1] amounted to 32.6; in data set [2] it was 3; in data set [3], 5.56; in data set [4], 3.21; in data set [5], 6.7; in data set [6] it was 6.79.
Consider “AUUUCCCUGGUCAGCGAGUGA [Fam2.1 aminoacylation ribozyme variant]”, for which the self-aminoacylation in data set [1] turned out to be 37.4; in data set [2] it was 4.15; in data set [3] it was 6.28; in data set [4], 3.85; in data set [5], 6.54; in data set [6], 6.86.
